# Reference: patent publication US20150307603A1 (MODIQUEST B V, published 2015)
# Non-standard residues stand in square brackets, D forms with d. No end group written: not given here. Cit = NC(=O)NCCC[C@H](N)C(=O)O
# B1: RhmAb2.102 (antibody, human IgG1, lambda)
# heavy: not shown
# light: QSVLTQPPSMSAAPGQKVTISCSGSSSNIGNNYVSWYQQVPGTAPKLLIYDDNKRPSGIPGRFSGSKSATSATLGITGLQAGDEADYYCGSWDDNLSVVLFGGGTKLTVLGQPKAAPSVTLFPPSSEELQANKATLVCLISDFYPGAVTVAWKADSSPVKAGVETTTPSKQSNNKYAASSYLSLTPEQWKSHRSYSCQVTHEGSTVEKTVAPTECS
# notes: Human IgG1 lambda; also called Rhm2.102
# How the values were obtained:
# [1] = target: T1, peptide no. 1 (human histone 2A) (human, also: biotin-labelled); test: ELISA, Ab 2 ug/well
# T1 construct: also called peptide 1; AAASGXGKQGGK
# T1 peptide: AAASG[Cit]GKQGGK
# Procedure: (§1) Biotin and citrulline-containing peptides derived from histone 2A were immobilized on NEUTRAVIDIN®-coated 96-well ELISA plates (0.3 μg/well). CFC-1 and CFC-0 were coated at the same concentration and served as positive and negative controls, respectively, for specific anti-citrulline reactivity and as coating controls. Non-coated wells were used to test for aspecific binding of the antibodies. […] Detection of bound anti-citrulline antibodies was performed by incubating the wells with rabbit anti-human HRP (1:2000) for 1 hour at RT followed by incubation with TMB substrate. The resulting OD (y-axis) is a measure for antibody binding.
# [2] = target: T2, peptide no. 8 (human histone 2A) (human, also: biotin-labelled); test: ELISA, Ab 2 ug/well
# T2 construct: also called peptide 8
# T2 peptide: AGNAA[Cit]DNKKTR
# Procedure: as §1
# [3] = target: T3, CFC-1; test: ELISA, Ab 2 ug/well
# T3 construct: Positive control for anti-citrulline reactivity; also called cfc1 XG; Cfc1-peptide
# Procedure: as §1
# [4] = target: T4, peptide no. 7 (human histone 2A) (human, also: biotin-labelled); test: ELISA, Ab 2 ug/well
# T4 construct: also called peptide 7
# T4 peptide: GNYSE[Cit]VGAGAP
# Procedure: as §1
# [5] = target: T5, peptide no. 9 (human histone 2A) (human, also: biotin-labelled); test: ELISA, Ab 2 ug/well
# T5 construct: also called peptide 9
# T5 peptide: DNKKT[Cit]IIPRHL
# Procedure: as §1
# [6] = target: T6, peptide no. 2 (human histone 2A) (human, also: biotin-labelled); test: ELISA, Ab 2 ug/well
# T6 construct: also called peptide 2
# T6 peptide: AKAKS[Cit]SSRAGL
# Procedure: as §1
# [7] = target: T7, peptide no. 12 (human histone 2A) (human, also: biotin-labelled); test: ELISA, Ab 2 ug/well
# T7 construct: also called peptide 12
# T7 peptide: NKLLG[Cit]VTIAQG
# Procedure: as §1
# [8] = target: T1, peptide no. 1 (human histone 2A); test: ELISA, Ab 0.08 ug/well
# Procedure: as §1
# [9] = target: T2, peptide no. 8 (human histone 2A); test: ELISA, Ab 0.08 ug/well
# Procedure: as §1
# [10] = target: T8, peptide no. 4 (human histone 2A) (human, also: biotin-labelled); test: ELISA, Ab 0.08 ug/well
# T8 construct: also called peptide 4
# T8 peptide: QFPVG[Cit]VHRLLR
# Procedure: as §1
# [11] = target: T3, CFC-1; test: ELISA, Ab 0.08 ug/well
# Procedure: as §1
# [12] = target: T5, peptide no. 9 (human histone 2A); test: ELISA, Ab 0.08 ug/well
# Procedure: as §1
# [13] = target: T9, peptide no. 11 (human histone 2A) (human, also: biotin-labelled); test: ELISA, Ab 0.08 ug/well
# T9 construct: also called peptide 11
# T9 peptide: LQLAI[Cit]NDEELN
# Procedure: as §1
# [14] = target: T10, peptide no. 5 (human histone 2A) (human, also: biotin-labelled); test: ELISA, Ab 0.08 ug/well
# T10 construct: also called peptide 5
# T10 peptide: VGRVH[Cit]LLRKGN
# Procedure: as §1
# [15] = target: T6, peptide no. 2 (human histone 2A); test: ELISA, Ab 0.08 ug/well
# Procedure: as §1
# [16] = target: T7, peptide no. 12 (human histone 2A); test: ELISA, Ab 0.08 ug/well
# Procedure: as §1
# [17] = target: T11, peptide no. 6 (human histone 2A) (human, also: biotin-labelled); test: ELISA, Ab 0.08 ug/well
# T11 construct: also called peptide 6
# T11 peptide: VHRLL[Cit]KGNYSE
# Procedure: as §1
# [18] = target: T12, peptide no. 3 (human histone 2A) (human, also: biotin-labelled); test: ELISA, Ab 0.08 ug/well
# T12 construct: also called peptide 3
# T12 peptide: KSRSS[Cit]AGLQFP
# Procedure: as §1
# [19] = target: T13, msFibα XG (mouse, X at position 8 = citrulline; biotin-labelled); test: ELISA, Ab 0.08 ug/well
# T13 peptide: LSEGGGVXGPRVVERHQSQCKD
# Procedure: as §1, with “fibrinogen and vimentin” for “histone 2A”
# Biotin-labeled and citrulline-containing fibrinogen and vimentin peptides (Table 5) were also tested for reactivity with the therapeutic antibodies. Peptides were coated on 96-well NEUTRAVIDIN®-ELISA plates.
# [20] = target: T3, CFC-1; test: ELISA, Ab 0.4 ug/well
# Excerpt: (§2) The resulting OD (y-axis) is a measure for antibody binding. H1-recombinant histone 1; H1/p2-huPAD2 recombinant histone 1; H1/p4-huPAD4 recombinant histone 1, and so forth (x-axis).
# [21] = target: human recombinant histone 4 (human, UniProt P62805 2-103); test: ELISA, Ab 0.4 ug/well
# Excerpt: as §2
# [22] = target: T14, huPAD4-deiminated human recombinant histone 2B (human); test: ELISA, Ab 0.4 ug/well
# T14 construct: also called H2B/p4
# Excerpt: as §2
# [23] = target: T15, huPAD2-deiminated human recombinant histone 3 (human); test: ELISA, Ab 0.4 ug/well
# T15 construct: also called H3/p2; histone 3/p2
# Excerpt: as §2
# [24] = target: T16, human recombinant histone 3 (human); test: ELISA, Ab 0.4 ug/well
# T16 construct: Non-deiminated; also called H3
# Excerpt: as §2
# [25] = target: T17, human recombinant histone 2A (human); test: ELISA, Ab 0.4 ug/well
# T17 construct: Non-deiminated; also called H2A
# Excerpt: as §2
# [26] = target: T18, huPAD4-deiminated human recombinant histone 3 (human); test: ELISA, Ab 0.4 ug/well
# T18 construct: also called H3/p4
# Excerpt: as §2
# [27] = target: T19, huPAD2-deiminated human recombinant histone 2B (human); test: ELISA, Ab 0.4 ug/well
# T19 construct: also called H2B/p2
# Excerpt: as §2
# [28] = target: T20, huPAD4-deiminated human recombinant histone 2A (human); test: ELISA, Ab 0.4 ug/well
# T20 construct: also called H2A/p4; histone 2A/p4
# Excerpt: as §2
# [29] = target: T21, huPAD2-deiminated human recombinant histone 2A (human); test: ELISA, Ab 0.4 ug/well
# T21 construct: also called H2A/p2; histone 2A/p2
# Excerpt: as §2
binder,measurement,setting,value
B1,OD,[1],3.05 OD450
same,OD,[2],0.06 OD450
same,OD,[3],3.21 OD450
same,OD,[4],0.059 OD450
same,OD,[5],0.063 OD450
same,OD,[6],0.27 OD450
same,OD,[7],0.067 OD450
same,OD,[8],2.04 OD450
same,OD,[9],0.06 OD450
same,OD,[10],0.192 OD450
same,OD,[11],2.66 OD450
same,OD,[12],0.06 OD450
same,OD,[13],0.064 OD450
same,OD,[14],0.066 OD450
same,OD,[15],0.086 OD450
same,OD,[16],0.06 OD450
same,OD,[17],0.123 OD450
same,OD,[18],0.091 OD450
same,OD,[19],0.237 OD450
same,OD,[20],3.12 OD450
same,OD,[21],0.091 OD450
same,OD,[22],0.054 OD450
same,OD,[23],1.18 OD450
same,OD,[24],0.08 OD450
same,OD,[25],0.071 OD450
same,OD,[26],0.166 OD450
same,OD,[27],0.06 OD450
same,OD,[28],2.72 OD450
same,OD,[29],3.08 OD450
